# Measurements taken from publication doi:10.1101/2020.05.04.077941 (bioRxiv, 2020).
# Biological target: purified human recombinant HGF (human, UniProt P14210 32-728)
# Assay: far-Western, overlay or dot blot
# Chain of purified human recombinant HGF (P14210 32-728): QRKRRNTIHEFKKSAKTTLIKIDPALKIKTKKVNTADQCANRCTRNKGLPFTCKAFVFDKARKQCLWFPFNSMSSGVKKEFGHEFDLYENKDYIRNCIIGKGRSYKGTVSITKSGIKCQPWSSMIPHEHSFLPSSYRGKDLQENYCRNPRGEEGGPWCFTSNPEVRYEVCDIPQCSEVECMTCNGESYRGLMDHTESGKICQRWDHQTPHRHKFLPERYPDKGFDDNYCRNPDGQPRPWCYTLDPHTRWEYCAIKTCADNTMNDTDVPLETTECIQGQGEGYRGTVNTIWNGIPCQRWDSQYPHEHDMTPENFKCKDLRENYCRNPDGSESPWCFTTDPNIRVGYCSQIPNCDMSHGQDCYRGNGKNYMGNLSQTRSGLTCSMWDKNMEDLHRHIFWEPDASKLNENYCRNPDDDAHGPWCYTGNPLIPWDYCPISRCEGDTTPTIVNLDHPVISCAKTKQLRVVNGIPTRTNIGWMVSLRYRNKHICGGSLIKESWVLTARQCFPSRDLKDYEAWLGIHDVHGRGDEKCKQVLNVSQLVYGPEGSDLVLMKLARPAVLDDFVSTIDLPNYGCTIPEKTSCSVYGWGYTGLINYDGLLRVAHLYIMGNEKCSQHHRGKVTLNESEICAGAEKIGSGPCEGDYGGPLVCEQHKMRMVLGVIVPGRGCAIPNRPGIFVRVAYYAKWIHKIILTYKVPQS
row,Binder,binding result
1,PDITILLSGQTISDISANVNEGSQQKL [NEPHRIN-P1 peptide],binds
2,QEGERVVFTCQATANPEIL [NEPH1-P1 peptide],binds
